In article PMC3317677 (International Journal of Molecular Sciences, 2012):
Where a chain is given by its changes, count along the chain named.

T1: DENV1 envelope protein domain III (EDIII, aa295-395) (Dengue virus type 1, Hawaii, strain)
T1 construct: also called DENV1 EDIII; EDIII from DENV1
T1 chain: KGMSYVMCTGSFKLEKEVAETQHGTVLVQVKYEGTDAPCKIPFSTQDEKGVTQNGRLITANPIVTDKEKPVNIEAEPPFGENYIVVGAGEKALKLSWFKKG

B1: C9 IgG (chimeric mouse/human IgG) (antibody, V domains shown)
VH: EVQLQQSGAELVRPGASVKLSCKALGYRFTDYEMYWVKQTPAHGLEWIGGIHPRSGNTAYNQKFKDKATLTADKSSSTAYMELSSLTSEDSAVYYCTTSLYWGQGTLVTVSA
VL: DVLMTQTPLSLPVILGDQASISCRSSQSLVHSNGNTYLHWYLQKPGQSPKLLIYSIFNRFSGVPDRFSGSGSGTDFTLKISRVEAEDLGVYFCSQGTHVPWTFGGGTKLEIK
notes: Bivalent IgG
B2: F1 Fab (chimeric mouse/human Fab) (Fab, V domains shown)
VH: B1 VH with Q3K, Q5V, Q6E
VL: B1 VL with V2I, T7S, I14S, N33T, S55K, I56V, F57S, I111L
B3: C9 Fab (chimeric mouse/human Fab) (Fab, V domains shown)
VH: B1 VH
VL: B1 VL

Columns and labels:
[1] = target: DENV2 envelope (E) protein in DENV2 infected BHK-21 cells (Dengue virus type 2, GenBank EU081177.1, UniProt A9LIC9, strain); test: immunostaining of cells or tissue; settings: one partner purified
[2] = target: T1, DENV1 envelope protein domain III …; test: ELISA; settings: both partners purified
[3] = target: T2, DENV3 envelope protein domain III (EDIII, aa295-395) (Dengue virus type 3, …, UniProt P27915, strain); test: ELISA; settings: both partners purified
T2 construct: also called DENV3 EDIII; EDIII from DENV3

[4] = target: T3, DENV4 envelope protein domain III (EDIII, aa295-395) (Dengue virus type 4, …, UniProt Q58HT7, strain); test: ELISA; settings: both partners purified
T3 construct: also called DENV4 EDIII; EDIII from DENV4

Binder	binding result [1]	fold stronger interaction than the C9 Fab (average) [2]	fold stronger interaction than the C9 Fab (average) [3]	binding result [4]	binding result [2]	binding result [3]
B1	binds	~30 times	~30 times	no binding	–	–
B2	–	–	–	–	binds	binds
B3	–	–	–	no binding	–	–
